According to the nanobody polyreactivity screen of Harvey et al. (2022):

Assay: yeast display, Sf9 membrane polyspecificity reagent, FACS + sequencing; frameworks hold sequencing errors
Summary of the method: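 A synthetic nanobody library was expressed on Saccharomyces cerevisiae BJ5465 by galactose induction for 36–48 hours. The library was stained for 1 hour at 4 °C with 10% biotinylated, detergent-solubilized Sf9 membrane reagent and enriched with streptavidin microbeads before FACS. Low and high (top ~1%) gates were set on anti-HA fluorescence for expression and streptavidin fluorescence for reagent binding, and each polyreactivity label reflects the gate of origin.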

Sequence | polyreactivity (PSR sort gate)
QVQLVESGGGLVQAGGSLRLSCAASGSIFSYNAMGWYRQAPGKERELVADITGSGGSTYYADSVKGRFTISRDNAKNTVYLQMNSLKPEDTAVYYCNAVGQYYYLGYDYWGQGTQVTVSS | low polyreactivity
QVQLVESGGGLVQAGGSLRLSCAASGLTFASYAMGWYRPAPGKERELVARISRSGGSTYYADSVKGRFTISRDNAKNTVYLQMNSLKPEDTAVYYCAADYIFRRYPVGGIYDYDYWGQGTQVTVSS | high polyreactivity
QVQLVESGGGLVQAGGSLRLSCAASGRTFFRYAMGWYRQAPGKERELVAAISSRGGSTYYADSVKGRFTISRDNAKNTVYLQMNSLKPEDTAVYYCNADAFINFILYDYWGQGTQVTVSS | high polyreactivity
QVQLVESGGGLVQAGGSLRLSCAASVRIYRPYAMGRYRQAPGKERELVAAISGSGGSTYYADSVKGRFTISRDNAKNTVYLQMNSLKPEDTAVYYCNAAPKWSDYFYPLEYWGQGTQVTVSS | low polyreactivity
QVQLVESGGGIVQAGGSLRLSCAASGSIFLGYTMGLYRQAPGKERELVAAINSSGGSTYYADSVKGRFTISRDNAKNTVYLQMNSLKPEDTAVYYCADANSILLFDSWGQGTQVTVSS | low polyreactivity
QVQLVESGGGLVQAGGSLRLSCAASGNTIGSNAMGWYRQAPGKERELVATISKRGGSTYYADSVKGRFTISRDNAKNTVYLQMNSLKPEDTAVYYCATTSTRYWAFSSRPDYRDDYWGQGTQVTVSS | high polyreactivity
QVQLVESGGGLVQAGGSLRLSCAASGIIFGYNVMGWYRQAPGKERELVAAIRYSGGSKYYADSVKGRFTISRDNAKNTVYLQMNSLKPEDTAVYYCAKAYRAAPRESYDYWGQGTQVTVSS | high polyreactivity
QVQLVESGGGLVQAGGSLRLSCAASGYTFGVYVMGWYRQAPGKERELVAAISGSTYYADSVKGRFTISRDNAKNTVYLQMNSLKPEDTAVYYCAAESYFFSPRTREKFDYWGQGTQVTVTS | low polyreactivity
QVQLGESGGGLVQAGGSLRLSCAASGSIFRSYAMGWYRQAPGKERELVAAISWRGGRTYYADSVKGRFTISRDNAKNTVYLQMNSLKPEDTAVYYCAARNRAQQGTRDHDYWGQGTQVTLSS | high polyreactivity
QVQLVESGGGLVQAGGSLRLSCAASGRTFRGYVMGWYRQAPGKERELVAAISKSGGSTYYADSVKGRFTISRDIAKNTVYLQMNSLKPEDTAVYYCNALPRTQYDYWGQGTQVTVSS | low polyreactivity
QVQLVESGGGLVQAGGSLRLRCAASGRIIFRNAMVWYRQAHGKERELVAAITRGGGSTYYADSVKGRFTISRDNAKNTVYLQMNSLKPEDTAVYYCAAGACYSLYSAYDYWGQGTQVTVSS | low polyreactivity
QVQLVESGGGLVQAGGSLRLSCAASGFIFYGYTMGWYRQAPGKERELVAAITFSGGRTYYADSVKGRFTISRDNAKNTVYLQMNSLKPEDTAVYYCNARVVNYFRPRTGAREYDYWGQGTQVTVSS | high polyreactivity
QVQLVESGGGLVQAGGSLRLSCAASGSTFLFYDMGWYRHAAGKERELVAAIRWSGGSTYADSVKGRFTISRDNAKNTVYLQMNSLKPVDTAVYYCATTYRPTFRRHYNYWGQGTQVTVSS | low polyreactivity
QVQLVESGGGLVQAGGSLRLSCAASGRTFDSYTMGWYRQAPGKERELVAAIRSSGGRTYADSVKGRFTISRDNAKNTVYLQMNSLKPEDTAVYYCAAARSYWAKYYYWGQGTQVTVSS | high polyreactivity
QVQLVESGGGLVQAGGSLRLSCASSGRIFGSYAMGWYRQAPGKERELVAGIRSVGSTNYADSVKGRFTISRDNAKNTVFLQINSLKPEDTAVYYCAARLWHLSYAGQGGDYWGQVTQVTVSS | low polyreactivity
QVQLVESGGGLVQAGGSLRLSCAASGRTFGRNGMGWYRQAPGKERELVAAISIGDSTTYADSVKGRFTISRDNAKNTVYLQMNSLKPEDTAVYYCAAEIERYPVWEYRGKYDYWGQGTQVTVSS | low polyreactivity
QVKLVESAVGLVQAGGSLRLSCAASGRTFCSYAMGWYRQAPGKERELVAAISRGGSRTYYADSVKGRFTISRDNAKNTVYLQMNSLKPEDTAVYYCAADPTASGHFLGQVDYWGQGTQVTVSS | high polyreactivity
QVQLVESGGGLVQARGSLRLSSAASGIIFCHYVMGWYRQAPGKERELVAAISSRGGNTYYADSVKWRFTISRDNAKNTVYFQMNSLKPEDTAVYYCNARGGARAWYFAYNYWGHGTQVTVSS | high polyreactivity
QVQLVESGGGLVQAGGSLRLSCAASGSIFITYAMGWYRQAPGKERELVAAIRDSGDRTYYADSVKGRFTISRDNAKKTVYLQMNSLKPEDTAVYYCNARWQEPLKYDYWGQGTQVTVSS | low polyreactivity
QVQLVESGGGLVQAGGSLRISCAASGRTFGSYSMGWYRQAPGNEREEVAAISLSAGSTYYADYVKGRFTISRDNAKNTVYLQMNRLKAEDTAVYYCAAGTKWYSQVYIYFYWGQGTQVTVSS | low polyreactivity

Sequence | polyreactivity (PSR sort gate)
QVQLVESGGGLVQAGGSLRFSCAASGSIFITYAMGWYRQAPGKERELVAAISRSGGSTYYADSVKGRFTISRDNAKNTVYLQMNSLKPEDTAVYYCAAYPYSAGRYYYWGQGTQVTVSS | high polyreactivity
QVQLVESGGGLVQAGGSLRLSCAASGSIFGHNTMGWYRQPPGKERELVAAITWNGGRTYYADSVKGRFTISRDNAKNTVYLQMNSLKPEDTAVYYCNAVVKTYGYKAHRYPSSRLNYWGQGTQVTVSS | high polyreactivity
QVQLVESGGGLVQAGGSLRLSCAASGFTISSYVMGWYRQAAGKEREVVAAISSSGARTYYADSVKGRFTISRDNAKNTVYLQMNSLKPEDTAVYYCAADNSPRPYDYWGQGTQVTVSS | high polyreactivity
QVQLVESGGGLVQAGGSLRLSCAASGSIFVPYAMGWYRQAPGKERELVAAISSGGGRTYYADSVKGRFTIARDNAKNTVYLQMNSLKPEDTAVYYCAARYYIGYGHRTYGYDYWGQGTQVTVSS | high polyreactivity
QVQLVESGGGLVQAGGSLRLSCAASGFTFGENAMGWYRQAPGKEWELVATISDSGDSTYYADSVKGRFTISRDNAKNTVYLLMNSLKPEDTAVYDCNAEQVCYTYGRYPEWYLYGYWGQGTQVTVSS | low polyreactivity
QVQLVESWGGLVQAGGSLRLSCAASGSTFYAYAMGWYRQAPGKERELVAAIDSGGSTYYADSVKGRFTISRDNAKNTVYLQMNSLIPEDTAVYYCAVRHRYTRAYWGRDYWGQGTQVTVSS | low polyreactivity
PVQLVESGGGLVQAGGSLRLSCAASGFTFTRYVMGWYRQAPGKERELVAAISGSGGSTNYADSVKGRFTISRDNAKNTVSLQMISLKPEDTAVYYCADRFVGSRYRFDYWGQGTQVTVSS | high polyreactivity
QVQLVESGGGLVQAGGSLRLSCAASGSTFENYAMGWSRQAPGKERELVAAISWSGGSTYYADSVKGRFTISRDNAKNTVYLQMNSLKPEDTAVYYCNAELYLRWGVTVTFDYWGQGTQVTVSS | low polyreactivity
QVQLVESGGGLVQAGGSLRLSCAASGSTFGGYAMGWYRQAPGKERELVAAISKSGGSTYYADSVKGRFTISRDNAKNTVYLQMNSLKPEDTAVYYCNAPYKRSPYNYWGQGTQVTVSS | high polyreactivity
QVQLVESGGGLVQAGGSLSLICAASGFTFGSNDMGWYRQAPGKERELVAAIDGSGDTYYADSVKGRFTISRDNAKNTVYLQMNSLKPEDTAVYYCARDDNPIYSGVTYDYWGQGTQVTVSS | low polyreactivity
QVQLVESGGGLVQEGGSVRFSCAASGSISKPNARGWYRQAAGKERELVASITRGGIPNYADSVKGRVTISRDNAKNTVYLQMNSLKPEDTAVYDCAAFYAYSKYSYNIRFYYWGQGTQVTVAS | high polyreactivity
QVQLVESGGGLLQAGGSLRLICAASGSTFSTNAMGWYRQAPGKERELVAAISRSGGSTNYADSVKGRFTISRDNAKNTVYLQMNSLKPEDTAVYYCARYSYRGTNVRYDYWGQGTQVTVSS | high polyreactivity
QVQLVESGAGLVQAGGSLRFSCAASGSIFDHYVMGWYRQAPGKEREFVAAIPSGDRTNYADSVKGRFTISRDNANNTVYLQMNSLKPEDTAVYYCNADYQYYFYYTTCYYDYDYWGQGTPVTVSS | low polyreactivity
QVQLVESGGGLVQAGGSLRLSCAAYGFTFSRKAMGWYRPAPGKERELVAAISIRGGSTYYADSVKGRFTISRDNAKITVYLQMNSLKPEDTAVYYCAALYRPTDYDYWGQGTQVTVSS | high polyreactivity
QVQLVESGGGLDQAGGSLRLSCAASGRIFRYYAMGWYRQAPGKERELVAAISTSGDTTYYADSVKGRFTISRDNAKNTVYLQMNSLKPEDTAVYYCAADTYYYLVKYGSYDYWGQGTQVTVSS | high polyreactivity
QVHLVESGGGLVQAGGSLRLSCAPSGFTFGYNAMGWYRQAPGKERELVAAISYRDGSTYYADSVKGRFTISRDTAKNTVYLQMNSLKPEDTAVYYCAAEVWYPGWGYDYWGQGTQVTVSS | high polyreactivity
QVQLVESGGGLVQAGGSLRLSCAASGRIFDHYARGWYRQAPGKERELVAAINSGGTTNYADSVKGRFTISRDNAKNTVYLQMNSLKPEDTAVYYCAARPRKGQYYFGGNYWGQGTQVTVSS | low polyreactivity
QVQLVESGGGLVQEGGSLRLSCAASGSTFTYYAMGWYRQAPGKERELVAAISRSGGNTYYADSVKGRFTISRDNAKNTVYLQMNSLKPEDTAVYYCAAYRQVYGFDYWGQGTQVTVSS | high polyreactivity
QVQIVESGGGIVQAGGSLRLSCAASGFIFVFNAMGWNRKAPGKERELVAAINGGDNTNYADSVKGRFTISRDNAKNTVYLQINSLKPEDTAVYYCAAEGEDSMWTGYDYDYWGQGTQVTVSS | low polyreactivity
QVQLVESGGGLVQAGGSLRLCCASSGSTFTYNTMGWYRQAPGKERELVAAISFSSGRTYYADSVKVRFTISRYNAINTVYLHINSLKPEDTAVYYCNARTWETLRGYDYWGQGTQVTVSS | high polyreactivity
